Measurements: patent publication US20250002577A1 (ONCORESPONSE, published 2025)

Key:
[1] = molecular target: T1, human LILRB1 on cells (human, UniProt Q8NHL6 24-650); test: flow cytometry, HEK293-6E transfectants
T1 construct: whole, on cells; also called hLILRB1; LILRB1-expressing 721.221 cells
Description: (§1) To determine that the parent chimera anti LILRB2/1 antibody specifically binds to LILRB2 and LILRB1 and not to other LILRB and LILRA family members, a cross-reactivity assay was performed. Cross-reactivity was assessed by antibody binding to transiently transfected HEK293-6E cells by flow cytometry. Binding was evaluated to HEK293-6E cells transiently transfected with human LILRB-1, -2, -3, -4, and 5 plasmids (Origene, Nos. RC219949, RC217935, RC211228, RC220932, RC206516) or to cells transiently transfected with human LILRA-1, -2, -4, -5, and -6 plasmids (Origene, Nos. RC210808, RC205626, RC220452, RC212310 RC212965). […] At a concentration of 1 μg/mL, no binding of B21A1 or the humanized variants to LILRB-3, -4, or -5 was observed (Table 7). Additionally, no binding to LILRA-1, -2, -4, -5, or -6 was observed, confirming the specificity of B21A1 and its humanized variants to LILRB1 and LILRB2 (Table 8).

[2] = molecular target: T2, human LILRB2 on cells (human, UniProt Q8N423 22-597); test: flow cytometry, HEK293-6E transfectants
T2 construct: whole, on cells; also called hLILRB2; LILRB2-HEK293T
T2 sequence (Q8N423 22-597): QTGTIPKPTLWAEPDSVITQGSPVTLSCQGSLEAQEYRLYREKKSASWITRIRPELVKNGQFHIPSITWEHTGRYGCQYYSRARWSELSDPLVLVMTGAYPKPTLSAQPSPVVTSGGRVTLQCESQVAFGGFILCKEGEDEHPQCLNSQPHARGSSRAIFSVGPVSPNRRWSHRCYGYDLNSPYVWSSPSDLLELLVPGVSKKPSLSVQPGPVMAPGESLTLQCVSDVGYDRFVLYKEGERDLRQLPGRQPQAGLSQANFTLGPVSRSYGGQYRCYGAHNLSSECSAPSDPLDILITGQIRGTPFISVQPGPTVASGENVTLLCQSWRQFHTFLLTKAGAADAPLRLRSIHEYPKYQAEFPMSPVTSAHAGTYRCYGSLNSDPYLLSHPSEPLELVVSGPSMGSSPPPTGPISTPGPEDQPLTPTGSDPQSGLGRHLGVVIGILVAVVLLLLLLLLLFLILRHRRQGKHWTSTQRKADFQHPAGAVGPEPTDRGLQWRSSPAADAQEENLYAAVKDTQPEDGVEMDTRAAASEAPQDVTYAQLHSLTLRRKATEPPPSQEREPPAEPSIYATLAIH
Description: as §1

[3] = molecular target: T3, human LILRB3 on HEK293-6E cells (human, UniProt O75022 24-631); test: flow cytometry, HEK293-6E transfectants
T3 construct: whole, on cells; also called hLILRB3
T3 sequence (O75022 24-631): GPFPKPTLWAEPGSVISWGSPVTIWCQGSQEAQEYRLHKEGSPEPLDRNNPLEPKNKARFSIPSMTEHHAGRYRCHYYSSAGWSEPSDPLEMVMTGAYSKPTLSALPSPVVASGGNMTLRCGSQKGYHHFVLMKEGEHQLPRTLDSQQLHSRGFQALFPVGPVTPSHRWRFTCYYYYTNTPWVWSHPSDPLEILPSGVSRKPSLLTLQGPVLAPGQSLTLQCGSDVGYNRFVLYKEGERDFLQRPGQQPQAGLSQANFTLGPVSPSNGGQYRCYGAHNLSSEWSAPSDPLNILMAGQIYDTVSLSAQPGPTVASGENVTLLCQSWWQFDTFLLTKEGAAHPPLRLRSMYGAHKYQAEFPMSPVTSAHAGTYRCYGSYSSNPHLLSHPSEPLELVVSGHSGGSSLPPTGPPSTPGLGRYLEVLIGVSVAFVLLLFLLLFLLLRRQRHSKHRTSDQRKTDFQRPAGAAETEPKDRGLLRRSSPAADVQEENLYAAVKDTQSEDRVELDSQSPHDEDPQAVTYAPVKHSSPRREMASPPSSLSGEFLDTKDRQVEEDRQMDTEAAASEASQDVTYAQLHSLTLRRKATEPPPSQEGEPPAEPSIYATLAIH
Description: as §1

[4] = molecular target: T4, human LILRB4 on HEK293-6E cells (human, UniProt Q8NHJ6 22-448); test: flow cytometry, HEK293-6E transfectants
T4 construct: whole, on cells; also called hLILRB4
Description: as §1

[5] = molecular target: T5, human LILRB5 on HEK293-6E cells (human, UniProt O75023 24-590); test: flow cytometry, HEK293-6E transfectants
T5 construct: whole, on cells; also called hLILRB5
T5 sequence (O75023 24-590): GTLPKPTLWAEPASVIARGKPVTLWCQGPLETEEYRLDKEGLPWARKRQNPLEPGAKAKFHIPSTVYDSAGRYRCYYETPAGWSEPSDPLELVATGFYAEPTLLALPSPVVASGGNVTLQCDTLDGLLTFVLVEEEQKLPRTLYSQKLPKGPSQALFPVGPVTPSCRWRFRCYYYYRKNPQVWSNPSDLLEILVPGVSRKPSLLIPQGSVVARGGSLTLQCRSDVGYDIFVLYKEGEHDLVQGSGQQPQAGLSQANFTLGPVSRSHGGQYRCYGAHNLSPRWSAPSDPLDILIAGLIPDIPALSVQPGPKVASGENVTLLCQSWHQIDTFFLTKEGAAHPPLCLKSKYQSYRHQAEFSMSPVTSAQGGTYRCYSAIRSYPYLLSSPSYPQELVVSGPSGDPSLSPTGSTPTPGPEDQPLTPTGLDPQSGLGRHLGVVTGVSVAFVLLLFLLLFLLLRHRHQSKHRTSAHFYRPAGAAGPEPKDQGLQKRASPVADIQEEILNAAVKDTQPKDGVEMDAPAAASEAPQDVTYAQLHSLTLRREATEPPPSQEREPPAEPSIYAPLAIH
Description: as §1

[6] = molecular target: T6, human LILRA1 on HEK293-6E cells (human, UniProt O75019 17-489); test: flow cytometry, HEK293-6E transfectants
T6 construct: whole, on cells; also called hLILRA1
T6 sequence (O75019 17-489): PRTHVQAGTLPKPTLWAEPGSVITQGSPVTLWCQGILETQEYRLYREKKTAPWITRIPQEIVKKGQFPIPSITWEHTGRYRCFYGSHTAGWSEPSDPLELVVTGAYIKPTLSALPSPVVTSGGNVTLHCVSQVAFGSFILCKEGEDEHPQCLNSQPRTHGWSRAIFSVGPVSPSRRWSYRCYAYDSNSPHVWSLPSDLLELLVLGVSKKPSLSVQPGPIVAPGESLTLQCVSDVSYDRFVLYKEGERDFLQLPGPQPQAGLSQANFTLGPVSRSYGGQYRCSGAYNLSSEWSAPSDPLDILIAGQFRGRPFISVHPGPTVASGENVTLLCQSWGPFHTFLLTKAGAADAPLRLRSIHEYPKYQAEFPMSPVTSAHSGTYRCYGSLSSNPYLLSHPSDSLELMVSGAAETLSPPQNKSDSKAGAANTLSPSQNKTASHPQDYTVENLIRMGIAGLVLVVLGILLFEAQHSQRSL
Description: as §1

[7] = molecular target: T7, human LILRA2 on HEK293-6E cells (human, UniProt Q8N149 24-483); test: flow cytometry, HEK293-6E transfectants
T7 construct: whole, on cells; also called hLILRA2
Description: as §1

[8] = molecular target: T8, human LILRA4 on HEK293-6E cells (human, UniProt P59901 24-499); test: flow cytometry, HEK293-6E transfectants
T8 construct: whole, on cells; also called hLILRA4
T8 sequence (P59901 24-499): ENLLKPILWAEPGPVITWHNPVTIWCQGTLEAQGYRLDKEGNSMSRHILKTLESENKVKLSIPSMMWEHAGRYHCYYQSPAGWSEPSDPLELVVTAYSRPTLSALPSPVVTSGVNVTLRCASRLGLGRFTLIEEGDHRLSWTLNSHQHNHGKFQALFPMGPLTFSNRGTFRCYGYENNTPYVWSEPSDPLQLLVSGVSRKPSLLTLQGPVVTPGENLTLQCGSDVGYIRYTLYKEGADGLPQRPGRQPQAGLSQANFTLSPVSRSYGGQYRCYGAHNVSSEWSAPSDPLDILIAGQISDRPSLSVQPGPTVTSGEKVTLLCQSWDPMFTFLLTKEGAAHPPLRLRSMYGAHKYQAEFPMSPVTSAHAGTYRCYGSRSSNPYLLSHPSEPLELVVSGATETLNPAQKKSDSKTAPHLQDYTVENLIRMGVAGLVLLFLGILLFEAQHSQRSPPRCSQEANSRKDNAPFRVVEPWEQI
Description: as §1

[9] = molecular target: T9, human LILRA5 on HEK293-6E cells (human, UniProt A6NI73 42-299); test: flow cytometry, HEK293-6E transfectants
T9 construct: whole, on cells; also called hLILRA5
T9 sequence (A6NI73 42-299): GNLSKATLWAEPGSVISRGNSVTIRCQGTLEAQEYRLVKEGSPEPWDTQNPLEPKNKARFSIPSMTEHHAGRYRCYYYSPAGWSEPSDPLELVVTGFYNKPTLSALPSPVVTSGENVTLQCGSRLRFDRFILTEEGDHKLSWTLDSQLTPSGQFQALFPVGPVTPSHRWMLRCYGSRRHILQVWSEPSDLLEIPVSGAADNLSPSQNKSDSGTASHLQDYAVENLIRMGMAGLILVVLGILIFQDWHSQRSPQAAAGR
Description: as §1

[10] = molecular target: T10, human LILRA6 on HEK293-6E cells (human, UniProt Q6PI73 24-481); test: flow cytometry, HEK293-6E transfectants
T10 construct: whole, on cells; also called hLILRA6
T10 sequence (Q6PI73 24-481): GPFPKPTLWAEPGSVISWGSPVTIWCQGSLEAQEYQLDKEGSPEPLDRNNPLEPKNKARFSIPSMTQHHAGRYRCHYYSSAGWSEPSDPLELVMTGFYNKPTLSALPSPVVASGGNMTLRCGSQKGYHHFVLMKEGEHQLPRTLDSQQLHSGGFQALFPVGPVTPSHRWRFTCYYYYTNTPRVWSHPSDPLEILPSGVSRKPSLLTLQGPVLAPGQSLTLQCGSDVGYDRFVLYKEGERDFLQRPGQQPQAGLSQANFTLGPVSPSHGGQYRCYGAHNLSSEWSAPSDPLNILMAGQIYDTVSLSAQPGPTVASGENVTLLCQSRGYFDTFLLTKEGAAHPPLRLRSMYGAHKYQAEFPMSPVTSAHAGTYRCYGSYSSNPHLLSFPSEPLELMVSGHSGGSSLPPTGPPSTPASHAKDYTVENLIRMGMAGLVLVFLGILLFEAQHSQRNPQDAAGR
Description: as §1

[11] = molecular target: T11, recombinant human LILRB1-His (human, UniProt Q8NHL6 24-458); test: MSD ELISA, coated antigen, purified IgG1
T11 construct: Bought protein; also called LILRB1 protein
T11 sequence (Q8NHL6 24-458 limits assumed): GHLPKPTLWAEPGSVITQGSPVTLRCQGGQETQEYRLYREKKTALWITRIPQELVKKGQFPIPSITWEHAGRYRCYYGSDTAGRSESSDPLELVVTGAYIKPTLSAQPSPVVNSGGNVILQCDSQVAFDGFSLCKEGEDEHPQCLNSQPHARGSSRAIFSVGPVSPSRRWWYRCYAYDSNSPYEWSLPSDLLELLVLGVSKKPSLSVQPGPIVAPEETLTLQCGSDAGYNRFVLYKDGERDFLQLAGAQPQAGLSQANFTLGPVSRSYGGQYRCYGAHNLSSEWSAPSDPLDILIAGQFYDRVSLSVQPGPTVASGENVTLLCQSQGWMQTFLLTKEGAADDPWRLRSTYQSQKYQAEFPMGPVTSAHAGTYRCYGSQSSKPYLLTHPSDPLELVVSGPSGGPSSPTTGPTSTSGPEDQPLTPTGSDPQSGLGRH
Description: (§2) Recombinant human and cynomolgus LILRB1 proteins (R&D Systems, No. 8989-T2-050; ACROBiosystems, No. CDJ-C52H3) and recombinant human and cynomolgus LILRB2 proteins (ACROBiosystems, No. LI2-H5220; No. L12-C52H3) were diluted in PBS to 4 μg/mL and added to a multi-array 384-well high-binding plates (MSD, No. L21XA4) at 10 μL/well and incubated at 4° C. overnight. The plates were washed several times with Wash Buffer (0.05% Tween® 20 in PBS), using a microplate washer and then blocked with 70 μL/well of 5% BSA in PBS for 1 hour (h) at room temperature (RT) with shaking at 700 rpm. After blocking, 20 μL/well of anti-LILRB2/LILRB1 antibodies or isotype control were added to the plates, and the plates were sealed and incubated for 2 h at RT with shaking at 700 rpm. After primary antibody binding, plates were washed five times with 70 μL/well of Wash Buffer (0.05% Tween® 20 in PBS) using a microplate washer. Secondary detection antibody (SULFO-TAG™-labeled goat anti-human IgG antibody (MSD, No. R32AJ-1)) was diluted to 4 μg/mL in assay diluent (1% BSA in PBS) and 10 μL/well was added to plates and incubated at RT protected from light for 1 h, with shaking at 700 rpm. Following incubation, plates were washed five times with Wash Buffer, using a microplate washer. After removal of the final wash, 35 μL/well of MSD Gold Read Buffer B (MSD, No. R60AM-4) was added to all wells using a Multidrop combo washer/dispenser, and plates were read using MESO Sector 600MM instrument (MSD) within 5 minutes (min) after addition of Read Buffer. Signals as counts per minute (cpm) were recorded. EC₅₀ values were calculated using GraphPad Prism based on log concentration of the primary antibodies versus cpm values.

[12] = molecular target: T12, recombinant human LILRB2-His (human, UniProt Q8N423 22-461, limits assumed); test: MSD ELISA, coated antigen, purified IgG1
T12 construct: Bought protein; also called LILRB2 protein
T12 sequence (Q8N423 22-461 limits assumed): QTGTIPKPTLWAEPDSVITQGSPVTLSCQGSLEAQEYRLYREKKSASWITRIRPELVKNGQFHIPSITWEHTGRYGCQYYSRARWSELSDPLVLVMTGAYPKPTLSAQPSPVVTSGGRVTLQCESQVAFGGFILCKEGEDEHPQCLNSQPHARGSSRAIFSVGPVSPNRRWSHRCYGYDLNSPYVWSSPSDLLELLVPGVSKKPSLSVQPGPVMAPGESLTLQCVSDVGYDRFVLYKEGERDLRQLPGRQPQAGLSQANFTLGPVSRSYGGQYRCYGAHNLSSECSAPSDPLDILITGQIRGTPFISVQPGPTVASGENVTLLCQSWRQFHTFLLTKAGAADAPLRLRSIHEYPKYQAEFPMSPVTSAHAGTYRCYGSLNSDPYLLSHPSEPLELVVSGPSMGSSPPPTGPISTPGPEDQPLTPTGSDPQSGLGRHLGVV
Description: as §2

[13] = molecular target: T13, recombinant cynomolgus LILRB1 (cynomolgus); test: MSD ELISA, coated antigen, purified IgG1
T13 construct: Bought protein
Description: as §2

[14] = molecular target: T1, human LILRB1 on cells; test: flow cytometry, 721.221 cells, AF647-labelled antibody
Description: (§3) While LILRB2 expression is mostly restricted to myeloid cells, LILRB1 has a broader expression on immune cell subsets, including B cells, T cells and NK cells.
(§4) Frozen cells were removed from storage in vapor phase liquid nitrogen and thawed by gentle swirling in a water bath at 37° C., then resuspended in DMEM media with 10% FBS. Cells were placed in a 15 mL conical tube and centrifuged at 300×g for 5 min, then supernatant was removed. Cells were resuspended in DMEM+10% FBS at a cell density of 2×10⁵ cells/mL in a T75 flask for culturing, and incubated at 37° C., 5% CO₂ for 3 days before passaging. Cells were passaged when the cell density reached 1×10⁶ cell/mL. On the day of the assay, cells were centrifuged, then supernatant was removed. Cells were resuspended in Blocking Buffer B (FACS Buffer containing 10% FBS and 0.5 mg/mL human IgG1 (Athens Research, No. 16-16-090707-1M)+0.05% NaN₃, 5% (w/v)) in a 15 mL conical tube, then incubated at 4° C. for 30 min. […] Cells were incubated with antibodies at 4° C. for 1 h. Cells were washed twice in FACS Buffer (PBS containing 2 mM EDTA+1% FBS+0.05% NaN₃) and then stained with for 10 min with Zombie Violet™ fixable viability dye (BioLegend, No. 423114) at RT, washed with FACS Buffer and resuspend in 75 μL of FACS Buffer for acquisition on a BD FACSymphony™ or BD FACSCanto™ II flow cytometer (BD Biosciences), as described in Example 6.

[15] = molecular target: T2, human LILRB2 on cells; test: flow cytometry, LILRB2-HEK293T cells, AF647-labelled antibody
Description: as §3, §4

T1 sequence (Q8NHL6 24-650): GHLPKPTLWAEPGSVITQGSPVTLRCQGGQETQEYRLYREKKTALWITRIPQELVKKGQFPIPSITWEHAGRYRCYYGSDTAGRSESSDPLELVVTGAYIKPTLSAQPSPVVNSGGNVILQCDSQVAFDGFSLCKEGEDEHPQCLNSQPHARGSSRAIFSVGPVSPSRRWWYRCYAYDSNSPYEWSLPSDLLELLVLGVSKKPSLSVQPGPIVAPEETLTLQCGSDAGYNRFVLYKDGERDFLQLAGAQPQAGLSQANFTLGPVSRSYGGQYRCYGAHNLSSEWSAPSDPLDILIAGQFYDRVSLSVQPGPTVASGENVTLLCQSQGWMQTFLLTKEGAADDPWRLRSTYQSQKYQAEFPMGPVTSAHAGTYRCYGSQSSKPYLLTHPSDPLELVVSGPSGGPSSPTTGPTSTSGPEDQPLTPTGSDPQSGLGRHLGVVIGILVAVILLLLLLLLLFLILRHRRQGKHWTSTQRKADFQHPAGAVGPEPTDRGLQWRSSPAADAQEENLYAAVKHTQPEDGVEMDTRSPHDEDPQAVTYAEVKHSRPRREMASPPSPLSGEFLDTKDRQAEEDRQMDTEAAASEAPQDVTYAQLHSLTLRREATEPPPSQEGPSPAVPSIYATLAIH

| Binder | MFI [1] | MFI [2] | MFI [3] | binding result [3] | MFI [4] | binding result [4] | MFI [5] | binding result [5] | MFI [6] | binding result [6] | MFI [7] | binding result [7] | MFI [8] | binding result [8] | MFI [9] | binding result [9] | MFI [10] | binding result [10] | EC50 [11] | EC50 [12] | also measured |
| --- | --- | --- | --- | --- | --- | --- | --- | --- | --- | --- | --- | --- | --- | --- | --- | --- | --- | --- | --- | --- | --- |
| B21A1 (antibody, human IgG1, kappa, Rabbit/human chimera, human IgG1/kappa; AF647-conjugated in the flow cytometry titrations; also called B21A1 chimera IgG1; parent B21A1) heavy: not shown light: DIVMTQTPASVEAAVGGTVTINCQASGNIYSFLAWYQQKPGQPPKLLIYTASNLETGVPSRFSGSGSGTEYTLTISGVQCDDAATYYCLGGLYSSDVSYAFGGGTEVVVKRTVAAPSVFIFPPSDEQLKSGTASVVCLLNNFYPREAKVQWKVDNALQSGNSQESVTEQDSKDSTYSLSSTLTLSKADYEKHKVYACEVTHQGLSSPVTKSFNRGEC | 940 MFI | 5380 MFI | 107 MFI | no binding (tested: 1 µg/mL) | 35.2 MFI | no binding (tested: 1 µg/mL) | 101 MFI | no binding (tested: 1 µg/mL) | 264 MFI | no binding (tested: 1 µg/mL) | 30.2 MFI | no binding (tested: 1 µg/mL) | 143 MFI | no binding (tested: 1 µg/mL) | 78.5 MFI | no binding (tested: 1 µg/mL) | 150 MFI | no binding (tested: 1 µg/mL) | 0.0105 µg/mL | 0.038 µg/mL | EC50 [13]: 0.306 µg/mL; EC50 [14]: 0.0448 µg/mL; EC50 [15]: 0.0008 µg/mL |
| B21H1-45 (antibody, human IgG1, kappa, humanized IgG1/kappa, VH4+VL5) heavy: not shown light: DIQMTQTPSTVEASVGGTVTITCQASGNIYSFLAWYQQKPGQPPKLLIYTASNLETGVPSRFSGSGSGTEYTLTISGLQSDDAATYYCLGGLYSSDVSYAFGGGTEVVVKRTVAAPSVFIFPPSDEQLKSGTASVVCLLNNFYPREAKVQWKVDNALQSGNSQESVTEQDSKDSTYSLSSTLTLSKADYEKHKVYACEVTHQGLSSPVTKSFNRGEC | 997 MFI | 6680 MFI | 81 MFI | no binding (tested: 1 µg/mL) | 27.2 MFI | no binding (tested: 1 µg/mL) | 83.6 MFI | no binding (tested: 1 µg/mL) | 264 MFI | no binding (tested: 1 µg/mL) | 26.2 MFI | no binding (tested: 1 µg/mL) | 108 MFI | no binding (tested: 1 µg/mL) | 71 MFI | no binding (tested: 1 µg/mL) | 135 MFI | no binding (tested: 1 µg/mL) | 0.0134 µg/mL | 0.0461 µg/mL | EC50 [13]: 0.284 µg/mL; EC50 [14]: 0.0616 µg/mL; EC50 [15]: 0.00086 µg/mL |
| B21H1-25 (antibody, human IgG1, kappa, humanized IgG1/kappa, VH2+VL5) heavy: not shown light: DIQMTQTPSTVEASVGGTVTITCQASGNIYSFLAWYQQKPGQPPKLLIYTASNLETGVPSRFSGSGSGTEYTLTISGLQSDDAATYYCLGGLYSSDVSYAFGGGTEVVVKRTVAAPSVFIFPPSDEQLKSGTASVVCLLNNFYPREAKVQWKVDNALQSGNSQESVTEQDSKDSTYSLSSTLTLSKADYEKHKVYACEVTHQGLSSPVTKSFNRGEC | 990 MFI | 5320 MFI | 93.9 MFI | no binding (tested: 1 µg/mL) | 32.4 MFI | no binding (tested: 1 µg/mL) | 90.6 MFI | no binding (tested: 1 µg/mL) | 280 MFI | no binding (tested: 1 µg/mL) | 27.4 MFI | no binding (tested: 1 µg/mL) | 138 MFI | no binding (tested: 1 µg/mL) | 78.2 MFI | no binding (tested: 1 µg/mL) | 148 MFI | no binding (tested: 1 µg/mL) | 0.0095 µg/mL | 0.0318 µg/mL | EC50 [13]: 0.377 µg/mL; EC50 [14]: 0.0782 µg/mL; EC50 [15]: 0.0009 µg/mL |
| B21H1-33 (antibody, human IgG1, kappa, humanized IgG1/kappa, VH3+VL3) heavy: not shown light: DIVMTQSPSSVSASVGDRVTITCQASGNIYSFLAWYQQKPGKAPKLLIYTASNLETGVPSRFSGSGSGTDFTLTISSLQPEDFATYYCLGGLYSSDVSYAFGGGTKVVIKRTVAAPSVFIFPPSDEQLKSGTASVVCLLNNFYPREAKVQWKVDNALQSGNSQESVTEQDSKDSTYSLSSTLTLSKADYEKHKVYACEVTHQGLSSPVTKSFNRGEC | 860 MFI | 6290 MFI | 89.2 MFI | no binding (tested: 1 µg/mL) | 27.4 MFI | no binding (tested: 1 µg/mL) | 85.8 MFI | no binding (tested: 1 µg/mL) | 204 MFI | no binding (tested: 1 µg/mL) | 25.9 MFI | no binding (tested: 1 µg/mL) | 112 MFI | no binding (tested: 1 µg/mL) | 73.1 MFI | no binding (tested: 1 µg/mL) | 140 MFI | no binding (tested: 1 µg/mL) | 0.00616 µg/mL | 0.0225 µg/mL | EC50 [13]: 5.85 µg/mL; EC50 [15]: 0.00144 µg/mL |
